From patent publication US20090018099

Key:
[1] = target: recombinant GST-Flag-CERT-S132A(1-138) fusion protein, produced in E. coli [GST: P08515]
[2] = target: recombinant GST-Flag-CERT(1-138) wild type fusion protein, produced in E. coli [GST: P08515]

B1: purified PKD1 (protein)
chain: MSAPPVLRPPSPLLPVAAAAAAAAAALVPGSGPGPAPFLAPVAAPVGGISFHLQIGLSREPVLLLQDSSGDYSLAHVREMACSIVDQKFPECGFYGMYDKILLFRHDPTSENILQLVKAASDIQEGDLIEVVLSASATFEDFQIRPHALFVHSYRAPAFCDHCGEMLWGLVRQGLKCEGCGLNYHKRCAFKIPNNCSGVRRRRLSNVSLTGVSTIRTSSAELSTSAPDEPLLQKSPSESFIGREKRSNSQSYIGRPIHLDKILMSKVKVPHTFVIHSYTRPTVCQYCKKLLKGLFRQGLQCKDCRFNCHKRCAPKVPNNCLGEVTINGDLLSPGAESDVVMEEGSDDNDSERNSGLMDDMEEAMVQDAEMAMAECQNDSGEMQDPDPDHEDANRTISPSTSNNIPLMRVVQSVKHTKRKSSTVMKEGWMVHYTSKDTLRKRHYWRLDSKCITLFQNDTGSRYYKEIPLSEILSLEPVKTSALIPNGANPHCFEITTANVVYYVGENVVNPSSPSPNNSVLTSGVGADVARMWEIAIQHALMPVIPKGSSVGTGTNLHRDISVSISVSNCQIQENVDISTVYQIFPDEVLGSGQFGIVYGGKHRKTGRDVAIKIIDKLRFPTKQESQLRNEVAILQNLHHPGVVNLECMFETPERVFVVMEKLHGDMLEMILSSEKGRLPEHITKFLITQILVALRHLHFKNIVHCDLKPENVLLASADPFPQVKLCDFGFARIIGEKSFRRSVVGTPAYLAPEVLRNKGYNRSLDMWSVGVIIYVSLSGTFPFNEDEDIHDQIQNAAFMYPPNPWKEISHEAIDLINNLLQVKMRKRYSVDKTLSHPWLQDYQTWLDLRELECKIGERYITHESDDLRWEKYAGEQGLQYPTHLINPSASHSDTPETEETEMKALGERVSIL
incorporation of radioactivity (in vitro kinase assay with [gamma-32P]-ATP, PhosphoImager) [1]: This is significantly impaired in the case of the CERT-S132A fusion protein | incorporation of radioactivity (in vitro kinase assay with [gamma-32P]-ATP, PhosphoImager) [2]: incorporation of radioactivity is detected
